Data from patent US20040022780A1, “Serine protease and topical retinoid compositions useful for treatment of acne vulgarise and production of anti-aging effects” (priority 1997, published 2004).

Assays:
[1] = tested on: utriculi of Rhino mouse skin; assay: Rhino mouse utriculus size reduction (whole mount epidermis image analysis); format: in vivo; details: single trypsin 1% (w/v) treatment, analyzed seven days later
Rhino mouse skin [2] = assay: H&E histology of trypsin treated Rhino mouse skin; format: in vivo; details: 0.1% (w/v) trypsin in GDL liposomes daily for five days
Transglutaminase mRNA = assay: RT-PCR gene expression in skin, transglutaminase; format: in vivo, Rhino mouse; details: increasing concentrations of trypsin (0.0001-0.01% (w/v)) daily for five days
Protocol: Rhino mice of Example 1 were treated daily with trypsin compositions (0% (w/v), 0.0001% (w/v), 0.001% (w/v), and 0.01% (w/v)), as prepared in Example 2, for five days and sacrificed at day eight. The skins of vehicle treated mice and trypsin-treated mice were obtained as described in Example 3, then their total RNAs were extracted using “RNA Stat-60” reagent available from Tel-Test “B,” Inc. as described in Chomczymski, “Single Step Method of RNA Isolation By Acid Guanidinium Thiocyanate-phenol-chloroform extraction,” 162 Anal. Biochem. 156-59 (1987) which is incorporated herein by reference in its entirety. A sufficient amount of RNase-free DNase available from Promega, Corp. under the tradename “RQ1 RNase-free DNase” was then added to the extracted RNA from each mouse such that each respective product contained 200 ng of DNased-RNA using the procedure set forth in “RNase-free DNase” protocol published by Promega, Corp. (May, 1995). […]
The PCR products were then analyzed on 2% agarose/ethidium bromide gels according to methods well-known in the art in order to compare the level of expression of certain genes in skins of trypsin-treated and untreated mice. […]

Rhino mouse skin [3] = assay: Visual irritation (scaling and erythema); format: in vivo; details: up to 1% (w/v) trypsin; not dose dependent
[4] = tested on: elastin fibers in Rhino mouse skin; assay: Elastin staining of paraffin skin sections, Rhino mouse; format: in vivo; details: trypsin treated Rhino mice vs untreated
Text: To further study this elasticity effect, skin sections of Rhino mice from Example 1 treated with the trypsin composition of Example 2 were stained for elastin on paraffin sections in accordance with the methods set forth in Kligman, L. H., “Luna's Technique, A Beautiful Stain for Elastin,” 3(2) The Amer. J. of Dermatopathol. 199-200 (1981) which is incorporated herein by reference in its entirety.

C57B1/6 skin = assay: Cutometer analysis of skin elasticity, C57B1/6 mouse; format: in vivo, C57B1/6 mice; details: Day 16, trypsin treated
Protocol: To quantitate this effect, a cutometer analysis was performed. We used a cutometer available from Acaderm (Menlo Park, Calif.), and employed the methods described in Couturaud et al., “Skin Biomechanical Properties: In Vivo Evaluation of Influence of Age and Body Site by a Non-Invasive Method,” 1 Skin Res. and Technol. 68-73 (1995) and Elsner et al., “Mechanical Properties of Human Forearm and Vulvar Skin,” 122 Br. J. Dermatol. 607-614 (1990) which are both incorporated herein by reference in their entirety. Suction was applied through a 2 mm aperture and the corresponding skin displacement and recovery after release of the negative pressure were measured. In human studies, an improvement in the ratios of deformation parameters Ua/Uf (skin fatigue, or total recovery from the load), Ur/Uf (biological elasticity, or elastic recovery after loading), and Ur/Ue (firmness, or improvement in the deformation resistance of the skin) indicates better tonicity and elasticity of the skin. The deformation parameters Ue, Uf, Ua, and Ur are dependent, in part, on skin thickness. Consequently, ratios were used for evaluation as described in Barel et al., “Suction Method for Measurement of Skin Mechanical Properties: The Cutometer,” Handbook of Non-Invasive Methods and the Skin 335-340 (1995) which is incorporated herein by reference in its entirety.
FIGS. 3(c) and (d), the untreated and trypsin treated skins, respectively, show the results of elastin staining.

Rhino mouse skin [5] = assay: Histology after suboptimal trypsin, all-trans retinoic acid or both; format: in vivo; details: suboptimal dose alone: 0.005% (w/v) trypsin or 0.0005% (w/v) all-trans retinoic acid
Protocol: A first set of Rhino mice of Example 1 were treated with suboptimal doses of the trypsin composition of Example 2. […] A second set of Rhino mice of Example 1 were treated with suboptimal concentrations of the all-trans retinoic acid composition of Example 2. A third set of Rhino mice of Example 1 were treated with both suboptimal doses of the trypsin composition of Example 2 and the all-trans retinoic acid composition of Example 2. In this third set of Rhino mice, the trypsin and all-trans retinoic acid treatments were each administered daily, but at different times (i.e. trypsin in the morning and all-trans retinoic acid in the afternoon). Mice were sacrificed and their skins were examined histologically with the procedure set forth in Example 3.

[6] = tested on: hamster ear sebaceous gland; assay: Hamster ear model, sebaceous gland size; format: in vivo, golden Syrian hamsters
Protocol: The possible effect of trypsin on the sebaceous component of acne was evaluated using the hamster ear model system. Young golden Syrian hamsters, 45-55 grams upon arrival, were purchased from Charles River Laboratories (Wilmington, Mass.). The ventral side of the hamsters' right ears were treated daily with 10 μl of the trypsin composition of Example 2, five days a week for three weeks, while the left ears were used as untreated controls.

B1: trypsin (protein, UniProt P00760 24-246, looked up)
Serine protease 1: IVGGYTCGANTVPYQVSLNSGYHFCGGSLINSQWVVSAAHCYKSGIQVRLGEDNINVVEGNEQFISASKSIVHPSYNSNTLNNDIMLIKLKSAASLNSRVASISLPTSCASAGTQCLISGWGNTKSSGTSYPDVLKCLKAPILSDSSCKSAYPGQITSNMFCAGYLEGGKDSCQGDSGGPVVCSGKLQGIVSWGSGCAQKNKPGVYTKVCNYVSWIKQTIASN
notes: lyophilyzed trypsin from Sigma-Aldrich, a serine protease, in Hepes buffer mixed with GDL liposomes
effect on utriculus size reduction of a single treatment [1]: no effect | inflammatory cells in skin histology (Rhino mouse skin [2]): no inflammatory cells | epidermis histology (H&E) (Rhino mouse skin [2]; vs untreated): hyperplastic with an increase in the number of cell layers | Transglutaminase mRNA level (Transglutaminase mRNA): reduced to below detection level | visual irritation (scaling and erythema) (Rhino mouse skin [3]): minor scaling and erythema | elastin fibers around the utriculi and the sebaceous glands [4]: increased in thickness and density | Ua/Uf (skin fatigue, total recovery from the load) (C57B1/6 skin): 0.675 ± 0.18 | Ur/Ue (firmness) (C57B1/6 skin): 0.7335 ± 0.02 | Ur/Uf (biological elasticity) (C57B1/6 skin): 0.404 ± 0.1 | skin histology of treatment given alone vs untreated skin (Rhino mouse skin [5]): marked inprovement | Sebaceous Gland Size ([6]; Trypsin 0.5% (w/v), 10 μl daily on ventral right ear, five days a week for three weeks): 95043.0 ± 4269.1 μ^2 | Percent Size Decrease (%) of sebaceous gland ([6]; Trypsin 0.5% (w/v), vs. liposome vehicle): −0.36 (vs. liposome % | effect on the size of the sebaceous gland ([6]; hamster ear, daily, five days a week for three weeks): no effect
